“And” between values parts separate entries of the source, which are not always exact repeats. Equal entries are not always repeated. Where two headings read alike, the source gives them in different places.
Legend:
[1] = Alpha-helical content by circular dichroism; format: physicochemical
Experimental: High-density lipoprotein-like 5A-POPC and 5A-SM complexes were prepared by a co-lyophilization procedure (25, 26). Peptide and phospholipids were dissolved in glacial acetic acid and mixed at 1:1.25 w/w ratio (approximately 1:7 molar ratio) and lyophilized. The powder was hydrated with bicarbonate buffered saline and cycled between 50° C. and room temperature to facilitate 5A-lipid binding. The resulting HDL complexes were analyzed by gel permeation chromatography, with UV detection at 220 nm, using Tosoh TSK gel G3000SWx1 column (Tosoh Bioscience, King of Prussia, Pa.). The HDL hydrodynamic diameters were determined by dynamic light scattering (DLS), using a Zetasizer Nano, Malvern Instruments (Westborough, Mass.). The number and intensity average values were reported. The alpha-helical contents of free and lipid bound 5A peptide were determined by Jasco J715 (Jasco, Easton, Md.) circular dichroism spectropolarimeter. Samples at 0.1 mg/mL concentration were loaded into a quartz cuvette (d=0.2-cm path length), and CD spectra from 185 to 240 nm were recorded at 24° C. […]
High-density lipoprotein-like 5A-POPC and 5A-SM complexes were prepared by a co-lyophilization procedure (25, 26). […] The resulting HDL complexes were analyzed by gel permeation chromatography, with UV detection at 220 nm, using Tosoh TSK gel G3000SWx1 column (Tosoh Bioscience, King of Prussia, Pa.). […]

[2] = molecular target: T1, BHK cells stably transfected with human ABCG1 (Homo sapiens, UniProt P45844); assay: Cholesterol efflux assay in vitro, ABCG1; format: cell-based; details: 18 h incubation
T1 construct: expressed in transfected cells; host or cells: BHK cells (stably transfected, mifepristone-inducible)
Experimental: (§1) Cholesterol efflux studies were performed, as described previously (25, 26). Briefly, BHK-mock and BHK stably transfected cells with human ABCA1 cDNA, ABCG1 cDNA and SR-BI cDNA were labeled for 24 h with 1 μCi/ml of ^3H-cholesterol in minimum essential medium medium plus 10% fetal calf serum. Transporters were induced with 10 nM mifepristone in Dulbecco's modified Eagle's medium (DMEM), containing 0.2 mg/ml of fatty acid-free bovine serum albumin for 18 h. Following induction of the transporters, the cells were washed and test articles were added at 0.1, 2.5, 5, 10, 20 and 40 μM in DMEM-BSA containing mifepristone. The cholesterol efflux by BSA, free 5A peptide, purified HDL, and ApoA-I were used as quality control standards. […] Radioactive counts in media and cell fractions were measured by liquid scintillation counting, and percent cholesterol effluxed was calculated by dividing media count by the sum of media and cell counts. […]
(§2) Cholesterol efflux studies were performed, as described previously (25, 26). […] Radioactive counts in media and cell fractions were measured by liquid scintillation counting, and percent cholesterol effluxed was calculated by dividing media count by the sum of media and cell counts.

[3] = molecular target: T2, BHK cells stably transfected with human SR-BI (Homo sapiens, UniProt Q8WTV0); assay: Cholesterol efflux assay in vitro, SR-BI; format: cell-based; details: 18 h incubation
T2 construct: expressed in transfected cells; host or cells: BHK cells (stably transfected, mifepristone-inducible)
T2 sequence (Q8WTV0 1-552): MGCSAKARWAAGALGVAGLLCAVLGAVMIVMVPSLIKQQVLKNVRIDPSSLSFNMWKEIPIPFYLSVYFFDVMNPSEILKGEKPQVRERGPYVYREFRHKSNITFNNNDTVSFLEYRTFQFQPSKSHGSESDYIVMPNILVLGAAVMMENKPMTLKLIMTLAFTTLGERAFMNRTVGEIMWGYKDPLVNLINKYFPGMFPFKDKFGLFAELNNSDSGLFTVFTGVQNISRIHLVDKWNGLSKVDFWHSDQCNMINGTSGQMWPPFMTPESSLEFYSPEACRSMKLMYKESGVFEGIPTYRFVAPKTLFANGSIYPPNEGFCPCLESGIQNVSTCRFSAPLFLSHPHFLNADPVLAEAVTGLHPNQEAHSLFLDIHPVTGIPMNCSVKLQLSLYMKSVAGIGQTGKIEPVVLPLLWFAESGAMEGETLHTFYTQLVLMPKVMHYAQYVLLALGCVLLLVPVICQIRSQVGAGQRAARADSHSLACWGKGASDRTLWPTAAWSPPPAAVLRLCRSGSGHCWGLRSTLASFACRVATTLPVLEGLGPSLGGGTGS
Experimental: as §1, §2

[4] = cited from earlier work

With “DWLKAFYDKVAEKLKEAFPDWAKAAYDKAAEKAKEAA [5A, ApoA-I mimetic, 37-amino acid-long bi-helical peptide]” the “Helicity (%)” value ([1]; Example 1, 0.1 mg/mL, 24° C.) was 19% and 18.9%, the alpha-helix content ([1]; Example 2, n=3, mean±SD) was 18.8±0.3% and the “cholesterol efflux via ABCG1” value [2] was “relatively low cholesterol efflux”. The “cholesterol efflux via SR-BI” value [3] was “relatively low cholesterol efflux”.

For “apoA-I: the main protein in High Density Lipoprotein (HDL)”, the helicity ([4]; associated with lipids) is listed as “over 80%” and the helicity ([4]; lipid-free state) is listed as “about 20%”.
